# Legend:
# [1] = molecular target: T1, His-tagged extracellular domain of PD-L1 (residues 19-238) (Homo sapiens (Human)., UniProt Q9NZQ7, N-linked glycosylation (sites N35, N192, N200, N219)); test: SPR; Biacore T200, 25 °C, PBS pH 7.4 with 0.05% Tween-20; 90 RU r22C3 captured, PD-L1 extracellular domain injected at 110 nM, then r28-8 injected over the r22C3-PD-L1 complex (top 33 nM, two-fold dilutions); 1:1 Langmuir model; conditions: both partners purified
# T1 construct: programmed cell death ligand-1 (PD-L1), human, extracellular domain, residues 19-238 of the 290-residue protein; The limits are stated for the SPR experiment; also called PD-L1 extracellular domain; recombinant PD-L1; source: provided by MedImmune, Cambridge, UK; purified
# T1 sequence (Q9NZQ7 19-238): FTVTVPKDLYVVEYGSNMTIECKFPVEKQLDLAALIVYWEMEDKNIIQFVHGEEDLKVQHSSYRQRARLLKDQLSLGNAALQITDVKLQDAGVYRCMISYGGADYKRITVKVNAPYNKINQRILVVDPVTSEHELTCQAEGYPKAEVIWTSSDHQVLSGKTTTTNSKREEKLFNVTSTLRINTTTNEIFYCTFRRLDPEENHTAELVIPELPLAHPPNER
# [2] = molecular target: T2, Ext4 PD-L1-GFP, a PD-L1 mutant with residues 284-290 deleted (Homo sapiens, UniProt Q9NZQ7, residues 284–290 deleted); test: immunostaining of cells or tissue; confocal immunofluorescence microscopy of HEK293 cells expressing PD-L1-GFP constructs, stained with r22C3 and r28-8; protocol in Supplementary Appendix B; conditions: one partner purified
# T2 construct: The label 'Ext4' is probably a slip for 'Int4'; source: HEK293 cells, expressed, on cells
# T2 sequence (Q9NZQ7 19-283, stated change not applied): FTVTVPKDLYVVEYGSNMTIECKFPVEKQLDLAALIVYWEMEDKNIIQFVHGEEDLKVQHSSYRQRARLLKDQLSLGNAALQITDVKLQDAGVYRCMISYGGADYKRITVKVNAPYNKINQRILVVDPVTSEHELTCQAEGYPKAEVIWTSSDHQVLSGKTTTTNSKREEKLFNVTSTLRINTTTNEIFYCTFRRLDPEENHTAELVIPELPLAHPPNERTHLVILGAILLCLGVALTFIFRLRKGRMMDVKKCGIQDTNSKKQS
# [3] = molecular target: T1, His-tagged extracellular domain of …; test: SPR; Biacore T200, 25 °C, PBS (10 mM sodium phosphate, 154 mM NaCl, pH 7.4) with 0.05% Tween-20; 90 RU r22C3 captured on anti-mouse antibody on a C1 chip; PD-L1 extracellular domain injected (top 110 nM, two-fold dilutions); 1:1 Langmuir model; conditions: both partners purified
Kd [1],binding result [2],Kd [3],Binder
< 0.04 nM,binds,,"recombinant 28-8 antibody (r28-8), rabbit IgG (antibody, V domains shown, Rabbit IgG; source: CHO-EBNA-GS cells, transient expression, purified) VH: CLSVEESGGRLVTPGTPLTLTCTASGFTITNYHMFWVRQAPGKGLEWIGVITSSGIGSSSTTYYATWAKGRFTISKTSTTVNLRITSPTTEDTATYFCARDYFTNTYYALDIWGPGTLVTVSS VL: ALVMTQTPSSTSTAVGGTVTIKCQASQSISVYLAWYQQKPGQPPKLLIYSASTLASGVPSRFKGSRSGTEYTLTISGVQREDAATYYCLGSAGSFGGGTEVVVK"
,binds,< 0.04 nM,"recombinant 22C3 antibody (r22C3), mouse IgG (antibody, V domains shown, Mouse IgG; source: CHO-EBNA-GS cells, transient expression, purified) VH: QVHLQQSGAELAKPGASVKMSCKASGYTFTSYWIHWIKQRPGQGLEWIGYINPSSGYHEYNQKFIDKATLTADRSSSTAYMHLTSLTSEDSAVYYCARSGWLIHGDYYFDFWGQGTTLVTVS VL: DIVMSQSPSSLAVSAGEKVTMTCKSSQSLLHTSTRKNYLAWYQQKPGQSPKLLIYWASTRESGVPDRFTGSGSGTDFTLTISSVQAEDLAVYYCKQSYDVVTFGAGTKLEIK"
